Our source for the stoichiometry N values is publication PMC4069078.

The target in experiment [1] is ChiAVD–G42A (chicken | not stated) (UniProt P56734). Briefly: dynamic light scattering; 50 mM NaH2PO4/Na2HPO4, 100 mM NaCl, pH 7 at 25°C; volume distribution.
Experiment [2] has as its target ChiAVD–G42F (chicken | not stated) (UniProt P56734). The experiment is described as above.
For experiment [3], the target named is Chimeric avidin ChiAVD(I117Y) (chicken | not stated) (UniProt P02701). Description: solution NMR structure; biotin-bound ChiAVD, 13C/15N-labelled, 58°C, 800 MHz; intersubunit NOE peaks identified by inspection of avidin crystal structures and manually assigned; RDCs in bicelles at 40°C.
The target is the same in experiment [4]. Briefly: dynamic light scattering; 50 mM NaH2PO4/Na2HPO4, 100 mM NaCl, pH 7 at 25°C; volume distribution.

Take “ChiAVD–G42A (from UniProt P56734 62-82; P02701 85-152)”: the stoichiometry N (as a rule, the number of molecules, sites or subunits per partner or assembly) in experiment [1] was 4.
“ChiAVD–G42F (from UniProt P56734 62-82; P02701 85-152)” yielded a stoichiometry N in experiment [2] of 4.
“Chimeric avidin ChiAVD(I117Y) (from UniProt P02701 85-152)”: the stoichiometry N in experiment [3] and in experiment [4] was 4 throughout.
